The values that follow come from paper PMC7360063, “Brassinosteroids regulate root meristem development by mediating BIN2-UPB1 module in Arabidopsis” (PLoS Genetics, 2020).

The chains are these.
T1: MBP-BIN2 (Arabidopsis, UniProt Q39011 1-380)
T1 construct: BIN2, Arabidopsis, At4g18710; source: E. coli, purified
T1 sequence (looked up): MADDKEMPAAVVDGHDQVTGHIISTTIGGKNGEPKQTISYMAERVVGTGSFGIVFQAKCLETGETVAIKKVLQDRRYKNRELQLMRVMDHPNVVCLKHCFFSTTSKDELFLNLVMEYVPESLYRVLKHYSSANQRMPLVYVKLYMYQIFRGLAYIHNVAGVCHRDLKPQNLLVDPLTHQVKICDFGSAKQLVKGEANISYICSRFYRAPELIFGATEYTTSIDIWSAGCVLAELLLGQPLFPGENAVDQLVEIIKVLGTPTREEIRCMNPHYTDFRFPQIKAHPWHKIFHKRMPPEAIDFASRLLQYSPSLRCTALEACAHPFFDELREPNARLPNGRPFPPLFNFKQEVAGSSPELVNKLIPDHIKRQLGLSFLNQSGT

B1: GST-PRE2 (natural protein, Arabidopsis, UniProt Q9LXG5 1-94, looked up)
chain: MSSSRRSRQASSSSRISDDQITDLISKLRQSIPEIRQNRRSNTVSASKVLQETCNYIRNLNKEADDLSDRLTQLLESIDPNSPQAAVIRSLING
notes: PRE2, Arabidopsis, At5g15160; source: E. coli, purified
B2: GST-PRE3 (natural protein, Arabidopsis, UniProt Q9CA64 1-93, looked up)
chain: MSGRRSRSRQSSGTSRISEDQINDLIIKLQQLLPELRDSRRSDKVSAARVLQDTCNYIRNLHREVDDLSERLSELLANSDTAQAALIRSLLTQ
notes: PRE3, Arabidopsis, At1g74500; source: E. coli, purified
B3: His-SUMO-UPB1 (natural protein, Arabidopsis, UniProt O22901 1-102, looked up)
chain: MGVTLEGQRKESIWVLMRRQRARRALVKKIMIRPRKSVEASRRPCRAIHRRVKTLKELVPNTKTSEGLDGLFRQTADYILALEMKVKVMQTMVQVLTETNCV
notes: UPB1, Arabidopsis, At2g47270; The phosphorylation methods speak of a 6x His tag; source: E. coli, purified

Test [1] deals with PRE2 (UniProt Q9LXG5). Description: anti-HA co-IP, anti-GFP blot. Conditions: reference: wild type UPB1; sites S37,S41.
Test [2] addresses PRE3 (UniProt Q9CA64). Description: anti-HA co-IP, anti-GFP blot. The settings on record: reference: wild type UPB1; sites S37,S41.
Test [3] deals with B3. Put plainly: pull-down; His pull-down: about 30 ug His-SUMO-UPB1 with 30 ug MBP-BIN2, GST-PRE2 or GST-PRE3 in 400 ul 20 mM Tris-HCl pH 8.0, 150 mM NaCl, 0.2% Triton; about 3 h at 4 C; blots with anti-His, anti-MBP, anti-GST. The settings on record: both partners purified.
Test [4] deals with T1, MBP-BIN2. The test is described as above. The settings on record: both partners purified.

“UPB1 (UPBEAT1) (from UniProt O22901) UPB1 S37A S41A”: the “binding against the reference” value in test [1] and in test [2] was “stronger” in each case. For B1, in test [3], the binding result was “binds”. Take B2: in test [3], the binding result is “binds”. With B3, in test [4], the binding result was “binds”.
